{"source": "patent US6303653", "system": "HNF-4alpha (transfected expression vector)", "experiment": "cell_activity", "settings": "COS-7 cotransfection, no added fatty acids", "data": [{"substance": "one to three C3P copies enhancing TK promoter CAT reporter", "values": [{"measurement": "activity (fold activation)", "result": 7}]}]}
